From patent US11702469B2, “Recombinant EGFL7, EGFL7 antibodies, and uses thereof” (Ohio State Innovation Foundation, priority 2017, dated 2023)
Entries after “also recorded” stand apart in the source; their conditions may differ.

Legend:
THP-1 cells = test: Apoptosis (AnnexinV+ FACS), THP-1; format: cell-based, human; settings: anti-EGFL7 treatment
Experimental: FIG. 24A-24G. EGFL7 prevents activation of NOTCH signaling in AML cells. (FIG. 24A) Overview of experiments using DLL4-FC and IgG-FC control coated plates to induce NOTCH activation. (FIG. 24B) THP-1 cells were pre-treated with 10 μM γ-secretase inhibitor (AVA), 100 μg/ml anti-EGFL7 antibody or 0.25 μM rEGFL7 for 30 min, then transferred to IgG-Fc or DLL4-Fc coated plates. After 4 h of incubation total RNA from THP-1 cells was extracted for qRT-PCR analysis of HES1 with β-ACTIN as internal control. ^###P<0.001 DLL4-FC vs IgG-FC; ***P<0.001 DLL4+AVA, DLL4+rEGFL7, and DLL4+anti-EGFL7 vs DLL4-FC. […] THP-1 cells were treated with the indicated concentration of anti-EGFL7 (@E7) then assessed for apoptosis using (FIG. 24D) AnnexinV+ staining and FACS; *P<0.05 (FIG. 24E) Immuno-blotting for PARP1 and Casp3 cleavage. (FIG. 24F) Cell differentiation was assessed by CD11B and CD14 staining 96-hours post anti-EGFL7 treatments; *P<0.05. (FIG. 24G) To determine whether activation of NOTCH by DLL4-Fc could be accentuated by anti-EGFL7 treatment, THP-1 cells were first treated with anti-EGFL7 (100 μg/ml) and then cultured on DLL4-FC or IgG-Fc coated plates and then assessed for apoptosis using AnnexinV+ staining and FACS. *P<0.05 DLL4-Fc and anti-EGFL7; vs DLL4-FC+anti-EGFL7. […]

BoyJ recipient mice = test: Competitive repopulation BM transplantation of treated BM; format: in vivo; settings: three weeks post-BMT, BM of treated mice vs IgG1 control
Experimental: FIG. 20A-20B. WT mice were treated with 50 mpk twice weekly of Parsatuzumab (@EGFL7) or IgG1 control. FIG. 20A. CBCs from mice harvested after treatment. FIG. 20B. Percent engraftment of treated BM (CD45.2+) transplanted into BoyJ recipient mice (CD45.1).
To assess the toxicity of Parsatuzumab on normal hematopoiesis, wild type (C57Bl/6J) mice were treated with Parsatuzumab (n=4) and IgG1 control (n=4) with the highest dose previously tested at 50 mpk twice a week for two weeks. Parsatuzumab targets both human and mouse EGFL7 protein. After two weeks of treatment, blood, spleen and BM were harvested and full phenotypic characterization was performed to assess toxicity. […] Full immunophenotypic examination of BM populations was also performed (data not shown due to space constraints). […] To functionally test the effect of Parsatuzumab on normal HSPCs, competitive repopulation BM transplantation (BMT) assays and CFU assays were performed. For competitive BMT, 2×10^6 WBM was harvested from Parsatuzumab and IgG1 treated mice (CD45.2) with 2×10^6 BoyJ (CD45.1) WBM and transplanted into lethally irradiated BoyJ recipients.

B1: Parsatuzumab: Anti-human EGFL7 therapeutic antibody (Parsatuzumab) obtained from Creative Biolabs; blocking monoclonal antibody (antibody, chains of the INN, looked up, V domains shown)
VH: EVQLVESGGGLVQPGGSLRLSCAASGYTFIDYYMNWVRQAPGKGLEWVGDINLDNSGTHYNQKFKGRFTISRDKSKNTAYLQMNSLRAEDTAVYYCAREGVYHDYDDYAMDYWGQGTLVTVSS
VL: DIQMTQSPSSLSASVGDRVTITCRTSQSLVHINAITYLHWYQQKPGKAPKLLIYRVSNRFSGVPSRFSGSGSGTDFTLTISSLQPEDFATYYCGQSTHVPLTFGQGTKVEIK
In the case of B1, the “AnnexinV+ apoptotic cells” value (THP-1 cells) is reported as “increase in AnnexinV+” and the “donor chimerism / percent engraftment (CD45.1 vs CD45.2)” value (BoyJ recipient mice) is reported as “no significant differences; also recorded: No significant changes”.
